Biological target: dansyl-CaM (dansylated calmodulin), P0DP29
Assay: other fluorescence titration
Conditions: remark: other sources report otherwise

- stoichiometry N: 1
B1: purified recombinant RGS14 (Regulator of G Protein Signaling 14), O08773 1-544 (natural protein)
chain: MPGKPKHLGVPNGRMVLAVSDGELTSTSGSQAQGEGRGSSLSIHSLPSGPSSPFSTDEQPVASWAQSFERLLQDPRGLAYFTEFLKKEFSAENVTFWQACERFQQIPASDTKQLAQEAHNIYHEFLSSQALSPVNIDRQAWLSEEVLAQPRPDMFRAQQLQIFNLMKFDSYARFVKSPLYQECLLAEAEGRPLREPGSSHLGSPDTARKKPKLKPGKSLPLGVEELGQLPLAEGRPLRKSFRREMPGGAVNSALRRESQGSLNSSASLDLGFLAFVSSKSESHRKSLGSGEGESESRPGKYCCVYLPDGTASLALARPGLTIRDMLAGICEKRGLSLPDIKVYLVGKEQKALVLDQDCTVLADQEVRLENRITFQLELVGLERVVRISAKPTKRLQEALQPILAKHGLSLDQVVLHRPGEKQLVDLENLVSSVASQTLVLDTLPDAKTREASSIPPCRSQGCLPRTQTKDSHLPPLSSSLSVEDASGSTGKRQTCDIEGLVELLNRVQSSGAHDQRGLLRKEDLVLPEFLQLPSQRPGSQEAPP
modifications: here or on the partner: dansyl label (site not stated)

Source: PMC6554723
